Test results published in article PMC9891525.

biological target: biotinylated recombinant SARS-CoV-2 wild type spike RBD (UniProt P0DTC2); settings: n = 2 replicates; parent: est. 100; read off a plot

Point of comparison: “REGN10987 scFv displayed on the surface of HEK 293T cells L106N; N57F”, percent of parent (Relative fluorescence) 120. Against it:
- REGN10987 scFv displayed on the surface of HEK 293T cells L106N; N57T — higher, 130

biological target: biotinylated recombinant SARS-CoV-2 wild type spike RBD (UniProt P0DTC2); settings: n = 2 replicates; parent: est. 110; read off a plot

Point of comparison: “REGN10987 scFv displayed on the surface of HEK 293T cells S97Y; D54L”, percent of parent (Relative fluorescence) 220. Against it:
- REGN10987 scFv displayed on the surface of HEK 293T cells S97Y; D54F — lower, 100
- REGN10987 scFv displayed on the surface of HEK 293T cells S97Y; D54F; N57H — lower, 110
- REGN10987 scFv displayed on the surface of HEK 293T cells S97Y; D54I — the same, 220
- REGN10987 scFv displayed on the surface of HEK 293T cells S97Y; D54T — the same, 220
- REGN10987 scFv displayed on the surface of HEK 293T cells S97Y; D54T; N57H — higher, 240
- REGN10987 scFv displayed on the surface of HEK 293T cells S97Y; D54Y — lower, 130
- REGN10987 scFv displayed on the surface of HEK 293T cells S97Y; D54Y; N57H — lower, 160
- REGN10987 scFv displayed on the surface of HEK 293T cells S97Y; N57H — lower, 200

biological target: biotinylated recombinant SARS-CoV-2 wild type spike RBD (UniProt P0DTC2); settings: n = 2 replicates; parent: est. 100; read off a plot; remark: another data set of the same source

Point of comparison: “REGN10987 scFv displayed on the surface of HEK 293T cells D54Y”, percent of parent (Relative fluorescence) 82. Against it:
- REGN10987 scFv displayed on the surface of HEK 293T cells D54F — higher, 97
- REGN10987 scFv displayed on the surface of HEK 293T cells D54I — higher, 110
- REGN10987 scFv displayed on the surface of HEK 293T cells D54L — higher, 130
- REGN10987 scFv displayed on the surface of HEK 293T cells D54T — higher, 120
- REGN10987 scFv displayed on the surface of HEK 293T cells N57H — higher, 120
- REGN10987 scFv displayed on the surface of HEK 293T cells S97Y — higher, 150

biological target: biotinylated recombinant SARS-CoV-2 wild type spike RBD (UniProt P0DTC2); settings: n = four independent experiments; read off a plot

With “REGN10987 scFv displayed on the surface of HEK 293T cells D54I” the enrichment was 3.2 log2(FC).
